Experiments:
[1] = system: soybean plantlets; experiment: High-throughput soybean screening for herbicide tolerance (plantlets); assay type: in vivo, soybean (A3555); set-up: key: 0 for poor tolerance, high damage, low green coloration; 1 for some tolerance, average damage, moderate green coloration; 2 for good tolerance, low damage, high green coloration; conditions: S-3100 spray five weeks post-transformation, scored day four
Excerpt: A high-throughput plant transformation and screening method was used to evaluate large numbers of constructs in transgenic plants for herbicide tolerance in early transformation plantlet tissue. This allowed for faster and higher volume screening of construct configurations and PPO enzymes.
This permitted the side-by-side comparison of seven different HemG PPO enzymes with thirty-seven different targeting peptides using the same promoter and 3′UTR elements for gene expression. These plant transformation constructs were used to transform soybean excised embryos (germplasm A3555) using A. tumefaciens and standard methods known in the art. Four hundred explants were inoculated for each construct resulting in twelve containers per construct. A sterile PPO herbicide solution was used for herbicide tolerance testing. The herbicide solution consisted of 0.3 g of S-3100 in crop oil concentrate (5.0 mL) and 495 mL of deionized water. This was filtered through a 0.45 micron Nalgene® Rapid-Flow™ Tissue Culture Filter Unit and Surfactant-Free Cellulose Acetate membrane filter unit (VWR, Radnor, PA, USA). The resulting sterile solution was shaken before application.
At five weeks post-transformation, four of the twelve plant containers per construct were sprayed with two passes of the sterile PPO herbicide solution. The treated plantlets were then enclosed in the container and received at least 15 hours of light exposure post spray each day for four days. At the end of day four post application of S-3100, the treated plantlets were photographed and scored on a visual scale of green coloration (green coloration was representative of healthy photosynthetic plant tissue as compared to photo-bleached tissue) versus damage. The scoring values were 0 for poor tolerance, high damage, low green coloration; 1 for some tolerance, average damage, moderate green coloration; and 2 for good tolerance, low damage, high green coloration. The scoring for each construct is presented in Table 9, where n.d. indicates the analysis was not conducted.

[2] = system: R0 soybean plants; experiment: R0 transgenic soybean herbicide tolerance at eleven weeks; assay type: in vivo; conditions: R0 plants sprayed with S-3100 at eleven weeks, rated seven days after treatment
Procedure: The plantlets in the non-sprayed containers corresponding to constructs having a score of 2 were transplanted at approximately 7 weeks post transformation and grown as R0 plants using standard methods known in the art. Plantlets corresponding to non-tolerant scores of 0 and 1 were also grown to serve as negative controls. The R0 plants were grown in a greenhouse under long-day nursery conditions (18 hr light at 80° F. then 6 hr dark at 74° F.) for approximately four weeks. At eleven weeks, the R0 plants were sprayed with two passes of the same herbicide solution (0.3 g of 5-3100) described above. Herbicide injury ratings were collected seven days after treatment.
The results of the herbicide tolerance application at eleven weeks to the R0 plants confirmed the low percent injury rating scores observed in the high-throughput screen at five weeks. Any injury rating of 30% or above was equivalent to non-transgenic soybean injury ratings. A few of the constructs stood out as providing very good tolerance to the herbicide application. […] Data are provided in Table 10, where n.d. indicates the analysis was not conducted.

B1: H_N30: microbial HemG protoporphyrinogen oxidase, SEQ ID NO:5 (SEQ ID NO:14 lacking start methionine) (protein, listed as Erwinia toletana)
chain: MKALILFSSREGQTREIASYIANSIKEEMECDVFNILRVEQIDWSQYDRVLIGGSIHYGHFHPAVAKFVKRHLHELQQRSSGFFCVNLTARKADKRTPQTNAYMRKFLLQSPWQPDCCAVFAGALRYTRYRWFDRVMIQLIMRMTGGETDTSKEVEYTDWTQVARFAQEFAHLPGKTQ
[1]; TP9
  coloration score: 1
[1]; TP10
  coloration score: 0
[1]; TP11
  coloration score: 1
[1]; TP12
  coloration score: 1
[1]; TP13
  coloration score: 1
[1]; TP15
  coloration score: 1
[1]; TP17
  coloration score: 1
[1]; TP18
  coloration score: 0
[1]; TP19
  coloration score: 0
[1]; TP24
  coloration score: 1
[1]; TP26
  coloration score: 0
[1]; TP27
  coloration score: 0
[1]; TP28
  coloration score: 0
[1]; TP29
  coloration score: 1
[1]; TP33
  coloration score: 1
[2]; TP1
  percent injury score: 5%
[2]; TP9
  percent injury score: 35%
[2]; TP11
  percent injury score: 35%
[2]; TP15
  percent injury score: 35%
[2]; TP26
  percent injury score: 35%

B2: H_N20: microbial HemG protoporphyrinogen oxidase, SEQ ID NO:2 (SEQ ID NO:12 lacking start methionine) (protein, listed as Pantoea ananatis)
chain: MKALILFSTRDGQTQKIASAIADEIKGQQSCDVINIQDAKTLDWQQYDRVLIGASIRYGHFQPVVNEFVKHNLLALQQRVSGFFSVNLTARKPEKRSPETNAYTVKFLAQSPWQPDCCAVFAGALYYPRYRWFDRVMIQFIMRMTGGETDASKEVEYTDWQQVQRFARDFAQLPGKSY
[1]; TP9
  coloration score: 1
[1]; TP11
  coloration score: 1
[1]; TP12
  coloration score: 2
[1]; TP13
  coloration score: 2
[1]; TP14
  coloration score: 0
[1]; TP15
  coloration score: 1
[1]; TP16
  coloration score: 1
[1]; TP17
  coloration score: 2
[1]; TP18
  coloration score: 1
[1]; TP19
  coloration score: 1
[1]; TP20
  coloration score: 2
[1]; TP21
  coloration score: 0
[1]; TP22
  coloration score: 1
[1]; TP23
  coloration score: 1
[1]; TP24
  coloration score: 1
[1]; TP25
  coloration score: 1
[1]; TP26
  coloration score: 1
[1]; TP27
  coloration score: 1
[1]; TP28
  coloration score: 1
[1]; TP29
  coloration score: 1
[1]; TP30
  coloration score: 1
[1]; TP31
  coloration score: 1
[1]; TP32
  coloration score: 0
[1]; TP33
  coloration score: 1
[2]; TP12
  percent injury score: 20%
[2]; TP13
  percent injury score: 20%
[2]; TP15
  percent injury score: 30%
[2]; TP17
  percent injury score: 25%
[2]; TP20
  percent injury score: 20%
[2]; TP29
  percent injury score: 30%

B3: H_N50: microbial HemG protoporphyrinogen oxidase, SEQ ID NO:7 (SEQ ID NO:16 lacking start methionine) (protein, listed as Shimwellia blattae)
chain: MKTLILFSTRDGQTHKIARHIAGVLEEQGKACELVDLLQPGEPDWSTVECVVLGASIRYGHFHKSFIRFVNTHAQRLNNMPGALFTVNLVARKPEKQSPQTNSYTRKFLAASPWQPQRCQVFAGALRYPRYSWYDRMMIRLIMKMAGGETDTRKEVEYTDWQSVTRFAREIAQLPGETR
[1]; TP9
  coloration score: 1
[1]; TP10
  coloration score: 1
[1]; TP11
  coloration score: 0
[1]; TP12
  coloration score: 1
[1]; TP13
  coloration score: 1
[1]; TP14
  coloration score: 1
[1]; TP15
  coloration score: 2
[1]; TP16
  coloration score: 0
[1]; TP17
  coloration score: 1
[1]; TP18
  coloration score: 1
[1]; TP19
  coloration score: 0
[1]; TP21
  coloration score: 1
[1]; TP22
  coloration score: 2
[1]; TP23
  coloration score: 1
[1]; TP24
  coloration score: 1
[1]; TP25
  coloration score: 2
[1]; TP26
  coloration score: 1
[1]; TP27
  coloration score: 1
[1]; TP28
  coloration score: 1
[1]; TP29
  coloration score: 1
[1]; TP30
  coloration score: 1
[1]; TP31
  coloration score: 0
[1]; TP32
  coloration score: 1
[1]; TP33
  coloration score: 1
[1]; TP34
  coloration score: 0
[1]; TP36
  coloration score: 0
[1]; TP37
  coloration score: 0
[2]; TP9
  percent injury score: 40%
[2]; TP13
  percent injury score: 40%
[2]; TP14
  percent injury score: 40%
[2]; TP15
  percent injury score: 40%
[2]; TP17
  percent injury score: 40%
[2]; TP22
  percent injury score: 40%
[2]; TP25
  percent injury score: 35%

B4: H_N100: microbial HemG protoporphyrinogen oxidase, SEQ ID NO:9 (SEQ ID NO:17 lacking start methionine; variant 20) (protein, listed as Enterobacter cloacae)
chain: MKTLILFSTRDGQTREIAAFLASELKEQGIYADVINLNRTEEIAWQEYDRVVIGASIRYGHFHPAVDRFVKKHTETLNSLPGAFFSVNLVARKAEKRTPQTNSYTRKFLLNSPWKPAACAVFAGALRYPRYRWYDRFMIRLIMKMTGGETDTRKEVVYTDWSQVASFAREIVQLTRSSRL
[1]; TP9
  coloration score: 0
[1]; TP10
  coloration score: 1
[1]; TP11
  coloration score: 0
[1]; TP12
  coloration score: 2
[1]; TP13
  coloration score: 0
[1]; TP14
  coloration score: 1
[1]; TP15
  coloration score: 2
[1]; TP16
  coloration score: 1
[1]; TP17
  coloration score: 1
[1]; TP18
  coloration score: 1
[1]; TP19
  coloration score: 1
[1]; TP20
  coloration score: 2
[1]; TP21
  coloration score: 0
[1]; TP22
  coloration score: 2
[1]; TP23
  coloration score: 2
[1]; TP24
  coloration score: 0
[1]; TP25
  coloration score: 1
[1]; TP27
  coloration score: 1
[1]; TP28
  coloration score: 1
[1]; TP29
  coloration score: 1
[1]; TP30
  coloration score: 1
[1]; TP31
  coloration score: 1
[1]; TP32
  coloration score: 2
[1]; TP33
  coloration score: 1
[1]; TP34
  coloration score: 0
[1]; TP35
  coloration score: 1
[1]; TP36
  coloration score: 1
[2]; TP10
  percent injury score: 35%
[2]; TP12
  percent injury score: 50%
[2]; TP15
  percent injury score: 30%
[2]; TP20
  percent injury score: 35%
[2]; TP22
  percent injury score: 30%
[2]; TP23
  percent injury score: 35%
[2]; TP28
  percent injury score: 35%
[2]; TP29
  percent injury score: 40%
[2]; TP32
  percent injury score: 40%
[2]; TP35
  percent injury score: 35%
